In US20220062341A1 (KIRIN, published 2022):

biological target: CD3 subunits (CD3E, CD3G, CD3D, CD3Z) (human, UniProt P07766 23-207; P09693 23-182; P04234 22-171; P20963 22-164); test: cell-based or functional assay
Sequence (P07766 23-207, chain 1 of 4): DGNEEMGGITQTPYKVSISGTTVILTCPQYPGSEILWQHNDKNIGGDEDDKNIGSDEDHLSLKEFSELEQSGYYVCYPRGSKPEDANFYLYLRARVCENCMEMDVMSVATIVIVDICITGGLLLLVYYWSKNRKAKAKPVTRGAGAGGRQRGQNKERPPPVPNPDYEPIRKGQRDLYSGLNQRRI
Sequence (P09693 23-182, chain 2 of 4): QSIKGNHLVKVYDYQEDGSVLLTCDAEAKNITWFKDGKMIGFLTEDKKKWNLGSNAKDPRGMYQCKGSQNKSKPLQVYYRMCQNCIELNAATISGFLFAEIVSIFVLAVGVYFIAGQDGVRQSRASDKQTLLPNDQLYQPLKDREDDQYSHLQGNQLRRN
Sequence (P04234 22-171, chain 3 of 4): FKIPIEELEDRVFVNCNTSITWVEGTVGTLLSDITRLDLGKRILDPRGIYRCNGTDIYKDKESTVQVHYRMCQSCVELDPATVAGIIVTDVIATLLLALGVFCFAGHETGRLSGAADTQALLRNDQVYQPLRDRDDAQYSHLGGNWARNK
Sequence (P20963 22-164, chain 4 of 4): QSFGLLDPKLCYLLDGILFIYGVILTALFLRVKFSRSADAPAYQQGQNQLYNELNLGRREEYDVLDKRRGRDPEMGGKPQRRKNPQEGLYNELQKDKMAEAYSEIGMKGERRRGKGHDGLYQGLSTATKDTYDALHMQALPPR

CD3-recruiting activity (CD3-positive proportion, N=3), CD3-stably expressing 293T cells [%] | Binder
≥ 20 | modified TCR consisting of β10 and α3 (TCR) TCR alpha: NVSQSKDSDVYITDKTVLDMRSMDFKSNSAVAWSNKSDFACANAFNNSIIPEDTFFPSPESSCDVKLVEKSFETDTNLNFQNLSVIGFRILLLKVAGFNLLMTLRLWSS TCR beta: YGLSENDEWTQDRAKPVTQIVSAEAWGRADCGFTSESYQQGVLSATILYEILLGKATLYAVLVSALVLMAMVKRKDSRG
≥ 20 | modified TCR consisting of β10 and α4 (TCR) TCR alpha: DVYITDKTVLDMRSMDFKSNSAVAWSNKSDFACANAFNNSIIPEDTFFPSPESSCDVKLVEKSFETDTNLNFQNLSVIGFRILLLKVAGFNLLMTLRLWSS TCR beta: YGLSENDEWTQDRAKPVTQIVSAEAWGRADCGFTSESYQQGVLSATILYEILLGKATLYAVLVSALVLMAMVKRKDSRG
≥ 20 | modified TCR consisting of β10 and α7 (TCR) TCR alpha: SNKSDFACANAFNNSIIPEDTFFPSPESSCDVKLVEKSFETDTNLNFQNLSVIGFRILLLKVAGFNLLMTLRLWSS TCR beta: YGLSENDEWTQDRAKPVTQIVSAEAWGRADCGFTSESYQQGVLSATILYEILLGKATLYAVLVSALVLMAMVKRKDSRG
≥ 20 | modified TCR consisting of β10 and α6 (TCR) TCR alpha: KSNSAVAWSNKSDFACANAFNNSIIPEDTFFPSPESSCDVKLVEKSFETDTNLNFQNLSVIGFRILLLKVAGFNLLMTLRLWSS TCR beta: YGLSENDEWTQDRAKPVTQIVSAEAWGRADCGFTSESYQQGVLSATILYEILLGKATLYAVLVSALVLMAMVKRKDSRG
≥ 20 | modified TCR consisting of β10 and α5 (TCR) TCR alpha: LDMRSMDFKSNSAVAWSNKSDFACANAFNNSIIPEDTFFPSPESSCDVKLVEKSFETDTNLNFQNLSVIGFRILLLKVAGFNLLMTLRLWSS TCR beta: YGLSENDEWTQDRAKPVTQIVSAEAWGRADCGFTSESYQQGVLSATILYEILLGKATLYAVLVSALVLMAMVKRKDSRG
≥ 20 | modified TCR consisting of β9 and α8 (TCR) TCR alpha: CANAFNNSIIPEDTFFPSPESSCDVKLVEKSFETDTNLNFQNLSVIGFRILLLKVAGFNLLMTLRLWSS TCR beta: FRCQVQFYGLSENDEWTQDRAKPVTQIVSAEAWGRADCGFTSESYQQGVLSATILYEILLGKATLYAVLVSALVLMAMVKRKDSRG
≥ 20 | modified TCR consisting of β9 and α10 (TCR) TCR alpha: IPEDTFFPSPESSCDVKLVEKSFETDTNLNFQNLSVIGFRILLLKVAGFNLLMTLRLWSS TCR beta: FRCQVQFYGLSENDEWTQDRAKPVTQIVSAEAWGRADCGFTSESYQQGVLSATILYEILLGKATLYAVLVSALVLMAMVKRKDSRG
≥ 20 | modified TCR consisting of β10 and α8 (TCR) TCR alpha: CANAFNNSIIPEDTFFPSPESSCDVKLVEKSFETDTNLNFQNLSVIGFRILLLKVAGFNLLMTLRLWSS TCR beta: YGLSENDEWTQDRAKPVTQIVSAEAWGRADCGFTSESYQQGVLSATILYEILLGKATLYAVLVSALVLMAMVKRKDSRG
≥ 20 | modified TCR consisting of β2 and αCR (TCR) TCR alpha: NIQNPDPAVYQLRDSKSSDKSVCLFTDFDSQTNVSQSKDSDVYITDKTVLDMRSMDFKSNSAVAWSNKSDFACANAFNNSIIPEDTFFPSPESSCDVKLVEKSFETDTNLNFQNLSVIGFRILLLKVAGFNLLMTLRLWSS TCR beta: ATLVCLATGFYPDHVELSWWVNGKEVHSGVSTDPQPLKEQPALNDSRYCLSSRLRVSATFWQNPRNHFRCQVQFYGLSENDEWTQDRAKPVTQIVSAEAWGRADCGFTSESYQQGVLSATILYEILLGKATLYAVLVSALVLMAMVKRKDSRG
≥ 20 | modified TCR consisting of β7 and α9 (TCR) TCR alpha: FNNSIIPEDTFFPSPESSCDVKLVEKSFETDTNLNFQNLSVIGFRILLLKVAGFNLLMTLRLWSS TCR beta: RLRVSATFWQNPRNHFRCQVQFYGLSENDEWTQDRAKPVTQIVSAEAWGRADCGFTSESYQQGVLSATILYEILLGKATLYAVLVSALVLMAMVKRKDSRG
≥ 20 | modified TCR consisting of β7 and α10 (TCR) TCR alpha: IPEDTFFPSPESSCDVKLVEKSFETDTNLNFQNLSVIGFRILLLKVAGFNLLMTLRLWSS TCR beta: RLRVSATFWQNPRNHFRCQVQFYGLSENDEWTQDRAKPVTQIVSAEAWGRADCGFTSESYQQGVLSATILYEILLGKATLYAVLVSALVLMAMVKRKDSRG
≥ 20 | modified TCR consisting of β9 and α9 (TCR) TCR alpha: FNNSIIPEDTFFPSPESSCDVKLVEKSFETDTNLNFQNLSVIGFRILLLKVAGFNLLMTLRLWSS TCR beta: FRCQVQFYGLSENDEWTQDRAKPVTQIVSAEAWGRADCGFTSESYQQGVLSATILYEILLGKATLYAVLVSALVLMAMVKRKDSRG
≥ 20 | modified TCR consisting of β10 and α9 (TCR) TCR alpha: FNNSIIPEDTFFPSPESSCDVKLVEKSFETDTNLNFQNLSVIGFRILLLKVAGFNLLMTLRLWSS TCR beta: YGLSENDEWTQDRAKPVTQIVSAEAWGRADCGFTSESYQQGVLSATILYEILLGKATLYAVLVSALVLMAMVKRKDSRG

Further lines, the binder ahead of its results:

Binder | CD3-recruiting activity (CD3-positive proportion, N=3), CD3-stably expressing 293T cells [%]
modified TCR consisting of β2 and α9 (TCR) TCR alpha: FNNSIIPEDTFFPSPESSCDVKLVEKSFETDTNLNFQNLSVIGFRILLLKVAGFNLLMTLRLWSS TCR beta: ATLVCLATGFYPDHVELSWWVNGKEVHSGVSTDPQPLKEQPALNDSRYCLSSRLRVSATFWQNPRNHFRCQVQFYGLSENDEWTQDRAKPVTQIVSAEAWGRADCGFTSESYQQGVLSATILYEILLGKATLYAVLVSALVLMAMVKRKDSRG | ≥ 20
modified TCR consisting of β2 and α2 (TCR) TCR alpha: SVCLFTDFDSQTNVSQSKDSDVYITDKTVLDMRSMDFKSNSAVAWSNKSDFACANAFNNSIIPEDTFFPSPESSCDVKLVEKSFETDTNLNFQNLSVIGFRILLLKVAGFNLLMTLRLWSS TCR beta: ATLVCLATGFYPDHVELSWWVNGKEVHSGVSTDPQPLKEQPALNDSRYCLSSRLRVSATFWQNPRNHFRCQVQFYGLSENDEWTQDRAKPVTQIVSAEAWGRADCGFTSESYQQGVLSATILYEILLGKATLYAVLVSALVLMAMVKRKDSRG | ≥ 20
modified TCR consisting of β2 and α7 (TCR) TCR alpha: SNKSDFACANAFNNSIIPEDTFFPSPESSCDVKLVEKSFETDTNLNFQNLSVIGFRILLLKVAGFNLLMTLRLWSS TCR beta: ATLVCLATGFYPDHVELSWWVNGKEVHSGVSTDPQPLKEQPALNDSRYCLSSRLRVSATFWQNPRNHFRCQVQFYGLSENDEWTQDRAKPVTQIVSAEAWGRADCGFTSESYQQGVLSATILYEILLGKATLYAVLVSALVLMAMVKRKDSRG | ≥ 20
modified TCR consisting of β2 and α4 (TCR) TCR alpha: DVYITDKTVLDMRSMDFKSNSAVAWSNKSDFACANAFNNSIIPEDTFFPSPESSCDVKLVEKSFETDTNLNFQNLSVIGFRILLLKVAGFNLLMTLRLWSS TCR beta: ATLVCLATGFYPDHVELSWWVNGKEVHSGVSTDPQPLKEQPALNDSRYCLSSRLRVSATFWQNPRNHFRCQVQFYGLSENDEWTQDRAKPVTQIVSAEAWGRADCGFTSESYQQGVLSATILYEILLGKATLYAVLVSALVLMAMVKRKDSRG | ≥ 20
modified TCR consisting of β2 and α10 (TCR) TCR alpha: IPEDTFFPSPESSCDVKLVEKSFETDTNLNFQNLSVIGFRILLLKVAGFNLLMTLRLWSS TCR beta: ATLVCLATGFYPDHVELSWWVNGKEVHSGVSTDPQPLKEQPALNDSRYCLSSRLRVSATFWQNPRNHFRCQVQFYGLSENDEWTQDRAKPVTQIVSAEAWGRADCGFTSESYQQGVLSATILYEILLGKATLYAVLVSALVLMAMVKRKDSRG | ≥ 20
modified TCR consisting of β2 and α5 (TCR) TCR alpha: LDMRSMDFKSNSAVAWSNKSDFACANAFNNSIIPEDTFFPSPESSCDVKLVEKSFETDTNLNFQNLSVIGFRILLLKVAGFNLLMTLRLWSS TCR beta: ATLVCLATGFYPDHVELSWWVNGKEVHSGVSTDPQPLKEQPALNDSRYCLSSRLRVSATFWQNPRNHFRCQVQFYGLSENDEWTQDRAKPVTQIVSAEAWGRADCGFTSESYQQGVLSATILYEILLGKATLYAVLVSALVLMAMVKRKDSRG | ≥ 20
modified TCR consisting of β2 and α1 (TCR) TCR alpha: YQLRDSKSSDKSVCLFTDFDSQTNVSQSKDSDVYITDKTVLDMRSMDFKSNSAVAWSNKSDFACANAFNNSIIPEDTFFPSPESSCDVKLVEKSFETDTNLNFQNLSVIGFRILLLKVAGFNLLMTLRLWSS TCR beta: ATLVCLATGFYPDHVELSWWVNGKEVHSGVSTDPQPLKEQPALNDSRYCLSSRLRVSATFWQNPRNHFRCQVQFYGLSENDEWTQDRAKPVTQIVSAEAWGRADCGFTSESYQQGVLSATILYEILLGKATLYAVLVSALVLMAMVKRKDSRG | ≥ 20
modified TCR consisting of β2 and α8 (TCR) TCR alpha: CANAFNNSIIPEDTFFPSPESSCDVKLVEKSFETDTNLNFQNLSVIGFRILLLKVAGFNLLMTLRLWSS TCR beta: ATLVCLATGFYPDHVELSWWVNGKEVHSGVSTDPQPLKEQPALNDSRYCLSSRLRVSATFWQNPRNHFRCQVQFYGLSENDEWTQDRAKPVTQIVSAEAWGRADCGFTSESYQQGVLSATILYEILLGKATLYAVLVSALVLMAMVKRKDSRG | ≥ 20
modified TCR consisting of β2 and α6 (TCR) TCR alpha: KSNSAVAWSNKSDFACANAFNNSIIPEDTFFPSPESSCDVKLVEKSFETDTNLNFQNLSVIGFRILLLKVAGFNLLMTLRLWSS TCR beta: ATLVCLATGFYPDHVELSWWVNGKEVHSGVSTDPQPLKEQPALNDSRYCLSSRLRVSATFWQNPRNHFRCQVQFYGLSENDEWTQDRAKPVTQIVSAEAWGRADCGFTSESYQQGVLSATILYEILLGKATLYAVLVSALVLMAMVKRKDSRG | ≥ 20
